The record followed here is patent US20030114404, “Vascular endothelial growth factor (VEGF) nucleic acid ligand complexes” (Gilead Sciences, Inc., published 2003).

Numbering of substitutions follows the chain as printed.

Sequences and labels used below:
B1: VP30.23 (ssRNA)
RNA: GGGAGGACGAUGCGGGAGCUUGAAGUUUCAGUAUUGGCACAACCUCAGACGACUCGCCCGA
modifications: 2'-F pyrimidines
B2: VP30.48 (ssRNA)
RNA: B1 RNA with A30G
modifications: 2'-F pyrimidines
B3: VP30.61 (ssRNA)
RNA: B1 RNA with U34C
modifications: 2'-F pyrimidines
B4: VP40.25 (ssRNA)
RNA: GGGAGGACGAUGCGGAAUGGAAUUUGAGUCGAUCUAGAAUGCGUCGUAUGGGCUCAGACGACUCGCCCGA
modifications: 2'-F pyrimidines
B5: VP30.40 (ssRNA)
RNA: GGGAGGACGAUGCGGAAACGGAAGAAUUGGAUACGCAAGCACGUUCAGACGACUCGCCCGA
modifications: 2'-F pyrimidines
B6: VP30.65 (ssRNA)
RNA: GGGAGGACGAUGCGGAAAACGCUUUUCUUGGCCCCCUCGUUGCGCCAGACGACUCGCCCGA
modifications: 2'-F pyrimidines
B7: VP40.24 (ssRNA)
RNA: GGGAGGACGAUGCGGGAUGCUGAGUGAGGAAGUCUGAUUGUUGCAGUAUUGGCGUCAGACGACUCGCCCGA
modifications: 2'-F pyrimidines
B8: VP30.58 (ssRNA)
RNA: GGGAGGACGAUGCGGCAACUAUUCGUUGAUGUUUCCGUGAGCCGUCAGACGACUCGCCCGA
modifications: 2'-F pyrimidines
B9: VT30.2 (ssRNA)
RNA: GGGAGGACGAUGCGGAUCAGUGAAUGCUUAUAGACCGCCUCCGUCAGACGACUCGCCCGA
modifications: 2'-F pyrimidines
B10: VP30.67 (ssRNA)
RNA: GGGAGGACGAUGCGGUUAACGGAAUUCUUGGAUACAUAGCAUGGUCAGACGACUCGCCCGA
modifications: 2'-F pyrimidines
B11: VP40.11 (ssRNA)
RNA: GGGAGGACGAUGCGGAAGGAAGAUGUUGAUCGUUUGACGUGAUGUGGAUCCGCGUCAGACGACUCGCCCGA
modifications: 2'-F pyrimidines
B12: VP30.18 (ssRNA)
RNA: GGGAGGACGAUGCGGAUCCAUCAUUUAACCGUUUGCUCUCCCCCUCAGACGACUCGCCCGA
modifications: 2'-F pyrimidines
B13: VT30.54 (ssRNA)
RNA: GGGAGGACGAUGCGGGACUAGGUGAAUGCCAAUAUUCUUCUCCGUCAGACGACUCGCCCGA
modifications: 2'-F pyrimidines
B14: VP30.20 (ssRNA)
RNA: GGGAGGACGAUGCGGUUGAUCGGACGUUAGUCAUUUCCCGAUCGUCAGACGACUCGCCCGA
modifications: 2'-F pyrimidines
B15: VP30.1 (ssRNA)
RNA: GGGAGGACGAUGCGGUCUUUGAGUUUUUGCCAACGGUUUUCGCUCAGACGACUCGCCCGA
modifications: 2'-F pyrimidines
B16: VP30.11 (ssRNA)
RNA: GGGAGGACGAUGCGGUCAGGAACGGAAUUUUUGGAGACACGCCCUCAGACGACUCGCCCGA
modifications: 2'-F pyrimidines
B17: VP40.26 (ssRNA)
RNA: GGGAGGACGAUGCGGACUCAACUGGACGCUAUGUUGACGGUUAUCGCUUUUGGGUCAGACGACUCGCCCGA
modifications: 2'-F pyrimidines
B18: VP40.3 (ssRNA)
RNA: GGGAGGACGAUGCGGCAAAAGUUUGAGUUGAUCUGAUACGUUUCAGUAUUGGCGUCAGACGACUCGCCCGA
modifications: 2'-F pyrimidines
B19: VP30.63 (ssRNA)
RNA: GGGAGGACGAUGCGGAACCAAUAGAGAUCUUCGGCUGCCCCGCGUCAGACGACUCGCCCGA
modifications: 2'-F pyrimidines
B20: VP40.2 (ssRNA)
RNA: GGGAGGACGAUGCGGAUCUGUGAACUGGGUUUUUGCCGACGGUUACGCUUUUGCUCAGACGACUCGCCCGA
modifications: 2'-F pyrimidines
B21: VP40.36 (ssRNA)
RNA: GGGAGGACGAUGCGGCAGGUUCAGAAUUGGCAGUCGCAUUGAUCUUUUUCACCGCCAGACGACUCGCCCGA
modifications: 2'-F pyrimidines
B22: VP30.6 (ssRNA)
RNA: GGGAGGACGAUGCGGAACGGAAUUCUUGGAUACACACCUCGUCCUCAGACGACUCGCCCGA
modifications: 2'-F pyrimidines
B23: VP40.18 (ssRNA)
RNA: GGGAGGACGAUGCGGUAGUAAGUUAUUGAAAGCGCAUCUCUAUCAACUCUCGGCCCAGACGACUCGCCCGA
modifications: 2'-F pyrimidines
B24: VP30.14 (ssRNA)
RNA: GGGAGGACGAUGCGGACUGGGAGAAUCCGAAAAACCUUCACGCGUCAGACGACUCGCCCGA
modifications: 2'-F pyrimidines
B25: VP30.19 (ssRNA)
RNA: GGGAGGACGAUGCGGCACUUUAGAAGAAUUGAAUUUCCCGCUGGUCAGACGACUCGCCCGA
modifications: 2'-F pyrimidines
B26: VT30.28 (ssRNA)
RNA: GGGAGGACGAUGCGGAGAAUCAGUGAAUGCUUAUAAACCUCGUGUCAGACGACUCGCCCGA
modifications: 2'-F pyrimidines
B27: VP30.25 (ssRNA)
RNA: GGGAGGACGAUGCGGCGGGAUUUUGGAAGAAUUGGAUAUUGGCCUCAGACGACUCGCCCGA
modifications: 2'-F pyrimidines
B28: VT30.1 (ssRNA)
RNA: GGGAGGACGAUGCGGAACUAGUGAAUGCUUAUACGACCGUGUUGUCAGACGACUCGCCCGA
modifications: 2'-F pyrimidines
B29: VT30.29 (ssRNA)
RNA: B28 RNA with C18U, U19C, C34G, G35C, A36U, U40C, U43G
modifications: 2'-F pyrimidines
B30: VT30.11 (ssRNA)
RNA: GGGAGGACGAUGCGGAAUCAGUGAAUGCUUAUAGCUCCCGCGUCCUCAGACGACUCGCCCGA
modifications: 2'-F pyrimidines
B31: VP30.35 (ssRNA)
RNA: GGGAGGACGAUGCGGUGAAUGAGCUGACGACCCUGAAUUGCUCGUCAGACGACUCGCCCGA
modifications: 2'-F pyrimidines
B32: VP40.5 (ssRNA)
RNA: GGGAGGACGAUGCGGUUGAUCGAGGUUCUAAAGCCUAUUUCCUGACUUUCUCCCCCAGACGACUCGCCCGA
modifications: 2'-F pyrimidines
B33: VT30.41 (ssRNA)
RNA: GGGAGGACGAUGCGGCAGGGUGAAUGCCAAUGUACUUUUCGCGUCAGACGACUCGCCCGA
modifications: 2'-F pyrimidines
B34: VT30.44 (ssRNA)
RNA: GGGAGGACGAUGCGGAAUCAGUGAAUGCUUAUACAUCCGCUCGGUCAGACGACUCGCCCGA
modifications: 2'-F pyrimidines
B35: VT30.21 (ssRNA)
RNA: GGGAGGACGAUGCGGAUCAGUGAAUGCUUAUAGACCGUAUUGCGUCAGACGACUCGCCCGA
modifications: 2'-F pyrimidines
B36: VP30.27 (ssRNA)
RNA: GGGAGGACGAUGCGGAAGAAUUGGAUAUAUCGUUCACCCCCACCUCAGACGACUCGCCCGA
modifications: 2'-F pyrimidines
B37: VT30.15 (ssRNA)
RNA: GGGAGGACGAUGCGGAACCAGUGAAUGCUUAUAAGACUGCUCGUCAGACGACUCGCCCGA
modifications: 2'-F pyrimidines
B38: t22 (ssRNA)
RNA: GACGAUGCGGUAGGAAGAAUUGGAAGCGC
modifications: 2'-F pyrimidines, N30 = 3'-3' inverted dT [30 = 3'-3' inverted dT; all C/U at 1-29 = 2'-F]

T1 sequence (P15692 other isoform, or with tags, fused parts or gaps): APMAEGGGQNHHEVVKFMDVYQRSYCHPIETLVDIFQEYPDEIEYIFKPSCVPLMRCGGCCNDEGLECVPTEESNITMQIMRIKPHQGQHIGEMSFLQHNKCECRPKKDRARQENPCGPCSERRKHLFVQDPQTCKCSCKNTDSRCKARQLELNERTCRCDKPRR

One series has as its target T1, VEGF165 (Homo sapiens, UniProt P15692-4 P15692-4:27-191). Description: filter; 37 C. The settings on record: tags: carrier-free, Sf 21 insect cell expressed, R & D Systems; chain copies: 2 (inferred). As for the experimental part:
(§1) Nucleic Acid Ligands radiolabeled during transcription by incorporation of α-[³²P]-labeled NTPs, or after synthesis using γ-[³²P]-ATP and T4 polynucleotide kinase, were incubated in low concentration (between 20 and 70 pM) with varying concentrations of VEGF or other growth factors at 37° C. for 15 minutes. Incubations were in TBS, PBS, or HEPES-buffered saline (HBS), pH 7.4, with or without the addition of supplemental divalent cations. Samples were passed through prewashed 0.45 μ Type HA filters (Millipore) followed by a 5-10 ml wash with binding buffer. Filters were immersed in scintillant and counted to quantitate the amount of protein-bound RNA retained by each filter. The equilibrium dissociation constant (KD) of Nucleic Acid Ligand binding to a specific protein was calculated from the data points as described in Green et al. (1996) Biochem. 35: 14413-14424.
Usually Kd stands for the free concentration of one partner at which half of the binding sites on the other are occupied at equilibrium, for simple one-to-one binding. The low end stands for higher affinity, the high end for lower affinity. With B1, binding was characterised by a dissociation constant (Kd) of 0.063 nM. Take B2: the Kd is > 10 nM. Consider B3, for which the Kd was determined as 0.043 nM. Same read-out and setting: in the case of B4 it was 0.74 nM; in that of B5, 0.006 nM; in that of B6, 0.033 nM. The same measure, in the same setting: to B7 belongs 5 nM; to B8, 0.006 nM. The same measure, in the same setting: in the case of B9 it was 0.002 nM; in that of B10, 0.024 nM. In turn, B11 had a Kd of 0.98 nM. B12 returned a Kd of 0.027 nM. On the same count and under the same terms, in the case of B13 it was 0.01 nM; in that of B14, 0.057 nM. On the same count and under the same terms, to B15 belongs 32 nM; to B16, 0.025 nM. As for B17, binding was characterised by a dissociation constant (Kd) of 0.013 nM. With B18, the Kd turned out to be 2 nM. On the same count and under the same terms, in the case of B19 it was 0.016 nM; in that of B20, 0.035 nM. Same read-out and setting: to B21 belongs 1.3 nM; to B22, 0.02 nM.

B23 showed a Kd of 0.012 nM. In turn, B24 returned a Kd of 0.025 nM. The same measure, in the same setting: to B25 belongs 0.009 nM; to B26, 0.06 nM. For B27, the Kd was 0.02 nM. On the same count and under the same terms, in the case of B28 it was 0.01 nM; in that of B29, 0.01 nM.

As to B30, the Kd was 0.004 nM. The same measure, in the same setting: to B31 belongs 0.006 nM; to B32, 0.019 nM. On the same count and under the same terms, in the case of B33 it was 0.04 nM; in that of B34, 0.01 nM; in that of B35, 0.006 nM.

Molecule B36 returned a Kd of 0.4 nM.

As for B37, the Kd was determined as 0.003 nM.

In a further series the target is T1, VEGF165. Description: filter; 37 C. The settings on record: tags: carrier-free, Sf 21 insect cell expressed, R & D Systems; chain copies: 2 (inferred). This is another data set of the same source. As for the experimental part:
as §1
The shared primary and secondary structural motifs that define each sequence family hint at the minimal sequence elements required for high affinity binding to VEGF. Nested truncations of a representative ligand from each family (indicated by gray boxes in Table 2) were produced by chemical synthesis and their relative affinities for VEGF were determined (Table 3). Truncated versions of ligands VP30.22, VP30.2 and VT30.44 were prepared by chemical synthesis and their affinities for VEGF were determined as described in Example 3. Initial truncations (t22, t2, t44) were further refined by synthesis of oligonucleotides with additional bases lacking from the 5′ and/or 3′ ends. In order to initiate the chemical synthesis, the 3′-most nucleotide of several of the ligands was modified either by substitution of 2′-OH-cytidine for 2′-F-cytidine (underlined) or by addition of a 3′-3′-linked deoxythymidine “cap” (asterisks). The length of each oligonucleotide (minus the cap) and its high affinity KD for binding to VEGF are shown.
Molecule GACGAUGCGGUAGGAAGAAUUGGAAGCG (ssRNA, 2'-F pyrimidines) [t22a] gave a Kd of 3 nM. On the same count and under the same terms, in the case of B38 it was 0.07 nM; in that of ACGAUGCGGUAGGAAGAAUUGGAAGCGC (ssRNA, 2'-F pyrimidines except 2'-OH C28) [t22b], 0.08 nM.
